Experimental data reported in PMC2832003.
Values belong to the binder of their own block, whether it stands above or below them.

Experiments:
[1] = target: T1, activin type IIB receptor (ActRIIB), coated on ELISA plates, Q13705
[2] = target: T1, activin type IIB receptor (ActRIIB), …; test: ELISA; competition: quantified conditioned media compete with biotinylated inhibin A for ActRIIB coated on the plate
[3] = target: T1, activin type IIB receptor (ActRIIB), …; test: ELISA; 50 ng ActRIIB dried in each well (20 mM HEPES pH 7.4); biotinylated inhibin A or activin A in TBST pH 7.4, 1.5 h, room temperature; streptavidin-HRP; standard binding curve
[4] = target: T1, activin type IIB receptor (ActRIIB), …; test: ELISA; competition: quantified conditioned media compete with biotinylated activin A for ActRIIB coated on the plate

B2: biotinylated human activin A, P08476 311-426 (complex)
chain: GLECDGKVNICCKKQFFVSFKDIGWNDWIIAPSGYHANYCEGECPSHIAGTSGSSLSFHSTVINHYRMRGHSPFANLKSCCVPTKLRPMSMLYYDDGQNIIKKDIQNMIVEECGCS
modifications: here or on the partner: biotin (EZ-link Micro Sulfo-NHS-LC-biotinylation Kit), sites not stated
EC50 [3]: 1.1 nM

B3: biotinylated human inhibin A, P05111 233-366; P08476 311-426 (complex)
chain 1: STPLMSWPWSPSALRLLQRPPEEPAAHANCHRVALNISFQELGWERWIVYPPSFIFHYCHGGCGLHIPPNLSLPVPGAPPTPAQPYSLLPGAQPCCAALPGTMRPLHVRTTSDGGYSFKYETVPNLLTQHCACI
chain 2: B2 chain
modifications: here or on the partner: biotin (EZ-link Micro Sulfo-NHS-LC-biotinylation Kit), sites not stated | biotin (EZ-link Micro Sulfo-NHS-LC-biotinylation Kit), sites not stated
EC50 [3]: 2.73 nM

B7: α^Hext−/βA mutant inhibin A, P05111 233-366; P08476 311-426 (complex)
chain 1: STPLMANCHRVALNISFQELGWERWIVYPPSFIFHYCHGGCGLHIPPNLSLPVPGAPPTPAQPYSLLPGAQPCCAALPGTMRPLHVRTTSDGGYSFKYETVPNLLTQHCACI
chain 2: B2 chain
modifications: here or on the partner: disulfide-linked heterodimer; alpha-subunit N-glycosylated (CHO-expressed)
IC50 [2]: 128 nM

Now from value to binder:

IC50 of antagonism of activin A (0.4 nM) in the FSHβ-luciferase assay in LβT2 cells, with transfected betaglycan [1]: 0.27 nM | IC50 of antagonism of activin A (0.4 nM) in the FSHβ-luciferase assay in LβT2 cells, without betaglycan [1]: 0.31 nM | IC50 [2]: 2.96 nM
B1: α^HPWR−/βA mutant inhibin A, P05111 233-366; P08476 311-426 (complex)
chain 1: STPLMSWPWSPSALRLLQRPPEEPAAHANCHRVALNISFQELGWERWIVYPPSFIFHYCHGGCGLHIYSLLPGAQPCCAALPGTMRPLHVRTTSDGGYSFKYETVPNLLTQHCACI
chain 2: B2 chain

IC50 [4]: 4.14 nM
B4: wild type human activin A (βA/βA dimer), P08476 311-426 (complex)
chain: B2 chain

IC50 [2]: 9.01 nM
B5: wild type human inhibin A (α^Hwt/βA), P05111 233-366; P08476 311-426 (complex)
chain 1: B3 chain 1
chain 2: B2 chain

IC50 [2]: 5.55 nM
B6: wild type chicken inhibin A (α^Chwt/βA), P43031 217-329; P08476 311-426 (complex)
chain 1: SAVPWSPAALSLLQRPSEDVAAHTNCRRASLNISFEELGWDNWIVHPSSFVFHYCHGNCAEGHGLSHRLGVQLCCAALPGTMRSLRVRTTSDGGYSFKYETVPNILAQDCTCV
chain 2: B2 chain
